Laboratory results reported in article PMC9949273 (The Journal of Cell Biology, 2023).

B1: GST-tagged ATL3 (natural protein, human, UniProt Q6DD88 1-541, looked up)
chain: MLSPQRVAAAASRGADDAMESSKPGPVQVVLVQKDQHSFELDEKALASILLQDHIRDLDVVVVSVAGAFRKGKSFILDFMLRYLYSQKESGHSNWLGDPEEPLTGFSWRGGSDPETTGIQIWSEVFTVEKPGGKKVAVVLMDTQGAFDSQSTVKDCATIFALSTMTSSVQIYNLSQNIQEDDLQQLQLFTEYGRLAMDEIFQKPFQTLMFLVRDWSFPYEYSYGLQGGMAFLDKRLQVKEHQHEEIQNVRNHIHSCFSDVTCFLLPHPGLQVATSPDFDGKLKDIAGEFKEQLQALIPYVLNPSKLMEKEINGSKVTCRGLLEYFKAYIKIYQGEDLPHPKSMLQATAEANNLAAAASAKDIYYNNMEEVCGGEKPYLSPDILEEKHCEFKQLALDHFKKTKKMGGKDFSFRYQQELEEEIKELYENFCKHNGSKNVFSTFRTPAVLFTGIVALYIASGLTGFIGLEVVAQLFNCMVGLLLIALLTWGYIRYSGQYRELGGAIDFGAAYVLEQASSHIGNSTQATVRDAVVGRPSMDKKAQ

What was measured:
GST-tagged ATL3 = target: B1; test: pull-down
[1] = target: ATL2-1 (major splice isoform of ATL2) (human, UniProt Q8NHH9 1-583); test: cross-linking

Binder | binding result (GST-tagged ATL3) | binding result [1]
His6-tagged N-terminal cytoplasmic domain of ATL2 (1–480) (domain or fragment, human, UniProt Q8NHH9 1-480, looked up) MAEGDEAARGQQPHQGLWRRRRTSDPSAAVNHVSSTTSLGENYEDDDLVNSDEVMKKPCPVQIVLAHEDDHNFELDEEALEQILLQEHIRDLNIVVVSVAGAFRKGKSFLLDFMLRYMYNKDSQSWIGGNNEPLTGFTWRGGCERETTGIQVWNEVFVIDRPNGTKVAVLLMDTQGAFDSQSTIKDCATVFALSTMTSSVQVYNLSQNIQEDDLQHLQLFTEYGRLAMEEIYQKPFQTLMFLIRDWSYPYEHSYGLEGGKQFLEKRLQVKQNQHEELQNVRKHIHNCFSNLGCFLLPHPGLKVATNPSFDGRLKDIDEDFKRELRNLVPLLLAPENLVEKEISGSKVTCRDLVEYFKAYIKIYQGEELPHPKSMLQATAEANNLAAVAGARDTYCKSMEQVCGGDKPYIAPSDLERKHLDLKEVAIKQFRSVKKMGGDEFCRRYQDQLEAEIEETYANFIKHNDGKNIFYAARTPATLFA | binds | 
B1 |  | binds
